Blank lines part the entries; values can stand above or below the substance they belong to.
Assays:
[1] = molecular target: PtuA of retron Ec78, wild type, His-Sumo tagged (E. coli ECONIH5); assay: SEC
[2] = molecular target: PtuA-E396Q of retron Ec78 (ATPase-deficient mutant), as expressed from the Ec78 operon (E. coli ECONIH5); assay: cryo-EM structure
[3] = molecular target: PtuA-Q361L of retron Ec78, His-Sumo tagged, co-expressed with PtuB without the retron (E. coli ECONIH5); assay: cryo-EM structure

stoichiometry N [1]: 4
Substance: PtuA of retron Ec78, wild type, His-Sumo tagged (enzyme)

stoichiometry N [2]: 4
Substance: PtuA-E396Q of retron Ec78 (ATPase-deficient mutant), as expressed from the Ec78 operon (enzyme)

stoichiometry N [3]: 4
Substance: PtuA-Q361L of retron Ec78, His-Sumo tagged, co-expressed with PtuB without the retron (enzyme)

stoichiometry N (PtuB subunits for four PtuA subunits) [2]: 2
Substance: PtuB of retron Ec78 with C-terminal His-tag, as expressed from the Ec78 operon (enzyme)

stoichiometry N (PtuB subunits for four PtuA subunits) [3]: 2
Substance: PtuB of retron Ec78, co-expressed with His-Sumo-PtuA from pRSF-Duet (enzyme)

stoichiometry N (RT for four PtuA subunits) [2]: 2 | stoichiometry N (RT–ncRNA–msDNA for four PtuA subunits) [2]: 1
Substance: Reverse transcriptase of retron Ec78 (enzyme)

Source: publication PMC12819146
